Reference: the nanobody polyreactivity screen of Harvey et al. (2022)

Test: yeast display, Sf9 membrane polyspecificity reagent, FACS + sequencing; frameworks hold sequencing errors
Outline: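 Synthetic nanobody libraries on Saccharomyces cerevisiae BJ5465 were galactose-induced for 36–48 hours, stained 1 hour at 4 °C with 10% biotinylated, detergent-solubilized Sf9 membrane reagent and enriched on streptavidin microbeads. FACS then separated cells into low and high (top ~1%) gates by anti-HA (expression) and streptavidin (reagent binding) fluorescence. Genes were colony-PCR amplified, MiSeq 2 × 250 sequenced and CDR-length filtered. A clone's polyreactivity label is that of its gate of origin.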

| Sequence | polyreactivity (PSR sort gate) |
| --- | --- |
| QVQLVESGGGLVQAGGSLRLSCAASGRTFRINAMGWYRHAPGKERELVAAITRGDTNYADSVKGRFTISRDNAKNTVYLQMNSLKPEDTAVYYCNAELSFRYPVFRELDYWGQGTQVTVSS | low polyreactivity |
| QVQLVESGGGLVQAGGSLRLSCAASGRTFRINAMGWYRQAPGKEREFVASIRYSGGSTYYADSVKGRFTISRDNAKNTVYLQMNSLKPEDTAVYYCAAVRSYYRGYDYWGQGTQVTVSS | high polyreactivity |
| QVQLVESGGGLVQAGGSLRLSCAASGRTFRIYAEGWYRQPPGKERELVARITWSGGRTYYADSVKGRFTISRDNAQNTVYLQMNSLKPEDTAVYYCNAGGSWEFDYWGQGTQVTVSS | low polyreactivity |
| QVQLVESGGGLVQAGGSLRLSCAASGRTFRKYAMGWYRQAPGKERELVAAISWSGGSTYYANSVKGRFTISRDNAKNTVYLQMNSLKPEDTAVYYCAAVPVHTGSLYWGFTTGYDYWGQGTKVTVSS | low polyreactivity |
| QVQLVESGGGLVQAGGSLRLSCAASGRTFRKYTMGWYRQAPGKERELVAAISSRGGSTYYADSVKGRFTISRDNAKNTVYLQMNSLKPEDTAVYYCATDYITPSSEGDYWGQGTQVTVSS | high polyreactivity |
| QVQLVESGGGLVQAGGSLRLSCAASGRTFRLNAMGWYRQAPGKERELVAAITSSGGSTYYADSVKGRFTISRDNAKNTVYLQLNSLKPEDTAVYYCARRQGYGVRSIRWGDYWGQGTQVTVSS | high polyreactivity |
| QVQLVESGGGLVQAGGSLRLSCAASGRTFRLYAMGWDRPAPGKERELVAAITRGGRTTYADSVKGRFTISRDNAKNTVYLQMNSLKPEDTAVYYCAARYVERHTDYYYWGQGTQVTVSS | low polyreactivity |
| QVQLVESGGGLVQAGGSLRLSCAASGRTFRLYAMGWYREAPGKERELVAAISYSGGSTYYADSVKGRFTISRDNAKNTVYLPMNSLKPEDTAVYYCAAYSGYYGGDDYWGQGTQVTVSS | high polyreactivity |
| QVQLVESGGGLVQAGGSLRLSCAASGRTFRLYAMGWYRQAPGKERELVAAIRSGGSTNYADSVKGRFTISRDNAKNTVYLQMNSLKPEDTAVYYCAVDGYFFQGPYYYWGQGTQVTVSS | low polyreactivity |
| QVQLVESGGGLVQAGGSLRLSCAASGRTFRNNAMGLCRQAPGKEREFVAVISNTGGSTYYADSVKGRFTISRDNAKNTVYLQMNSLKPEDTAVYYCAVRPRYSQYYYWGQGTQVTVSS | high polyreactivity |
| QVQLVESGGGLVQAGGSLRLSCAASGRTFRPYAMGWYRQAPGKERELVAAISSRGSSTYYADSVKGRFTISRDNAKNNVYLQMNSLKPEDTAVYYCAARSYWGGLRYDYWGQGTQVTVSS | high polyreactivity |
| QVQLVESGGGLVQAGGSLRLSCAASGRTFRPYAMGWYRQAPGKERELVAAITGGTRTYYADSVKGRFTISRDNAKNTVYLQMNSLKPEDTAVYYCAKGDFFSKHDYLGQGTQVTVSS | low polyreactivity |
| QVQLVESGGGLVQAGGSLRLSCAASGRTFRPYAMGWYRQAPGKERELVAAITRSGGSTYYADSVKGRFTISRDNAKNTVYLQMNSLKPEDTAVYYCAAYNTYSDTYDYWGQGTQVTVSS | low polyreactivity |
| QVQLVESGGGLVQAGGSLRLSCAASGRTFRQYAMGWYRQAPGKERELVADISSGGSTYYADSVKGRFTISRDNAKNTVYLKLNRLKPEDTAVYYCNKVSSGRYGSRSFDYWGQGTQVTVSS | low polyreactivity |
| QVQLVESGGGLVQAGGSLRLSCAASGRTFRRNAMGWYRQAPGKERELVAAISWRGVSTYYADSVKGRFTISRDNAKNTVYLQMNSLKPEDTAVYYCAVDFLYTRRDYWGQGTQVTVSS | high polyreactivity |
| QVQLVESGGGLVQAGGSLRLSCAASGRTFRRYAMGWYRQAPGKEREFVAAIRYSGGNTYYADSVKGRFTISRDNAKNTVYLQMNSLKPEDTAVYYCAARTYGKYRYSTYYYWGQGTQVTVSS | low polyreactivity |

| Sequence | polyreactivity (PSR sort gate) |
| --- | --- |
| QVQLVESGGGLVQAGGSLRLSCAASGRTFRRYAMGWYRQAPGKERELVAAISRGANTNYADSVKGRFTISRDNAKNTVYLQMNSLKPEDTAVYYCIAKQAGYYFAFGYWGQGTQVTVSS | high polyreactivity |
| QVQLVESGGGLVQAGGSLRLSCAASGRTFRRYAMGWYRQAPGKERELVAASSRGANTNYADSVKGRFTISRDNAKNTFYLQMNSLKPEDTAVYYCNAKQAGYYFAFGYWGQGTQVTVSS | high polyreactivity |
| QVQLVESGGGLVQAGGSLRLSCAASGRTFRRYAMGWYRQAPGNERELVAAISYNGGRTYYADSVKGRFTISRDNAKNTVYLQMNSLKPEDTAVYYCNARGPSWFGGRYYHWGQGTQVTVSS | high polyreactivity |
| QVQLVESGGGLVQAGGSLRLSCAASGRTFRRYTMGWYRQAPGKERELVATISSGGSTYADSVKGRFTISRDNAKNTVYLQMNSLKPEDTAVYYCAARYDVAWYSKRYSWGQGTQVTVSS | high polyreactivity |
| QVQLVESGGGLVQAGGSLRLSCAASGRTFRRYTMGWYRQAPGKVRELVAAITTSGGSTYYADSVKGRFTISRDNAKNTVYLQMNRLKPEDTAVYYCAATRRYSGDYWGQGTQVTVSS | high polyreactivity |
| QVQLVESGGGLVQAGGSLRLSCAASGRTFRRYVMGWYRQAPGKERELVAAISYSGATTYYADSVKGRFTISRDNAKNTVYLQMNSLKPEDTAVYYCAATAPGDRYFWGQGTQVTVSS | high polyreactivity |
| QVQLVESGGGLVQAGGSLRLSCAASGRTFRSNAMGGYRQAPGKERELVAAITYSGDRTYYADSVKGRFTISRDNAKNTVYLQMNSLKPEDTAVYDCNKYSRQYTYGYWGQGTQVTVSS | high polyreactivity |
| QVQLVESGGGLVQAGGSLRLSCAASGRTFRSYAMGWYRQAPGKEREFVAAISRSGASTRYADSVKGRFTISRDNAKNTVYLQMNSLKPEDTAVYYCAARYYPWKVNRFSYWYDYWGQGTQVTVSS | high polyreactivity |
| QVQLVESGGGLVQAGGSLRLSCAASGRTFRSYAMGWYRQAPGKERELVAAISYGGGRTFYADSVKGRFTISRDNAKNTVYLQMNSLKPEDTAVYYCNAAFPRSYRFDYWGQGTKVTVSS | high polyreactivity |
| QVQLVESGGGLVQAGGSLRLSCAASGRTFRSYAMGWYRQAPGKERELVAAITWGGGRTYYADSVKGRFTISRDNAKNTVYLQMNSLKPEDTAVYYCATRVKFSTSYWLYYWGQGTQVTVSS | high polyreactivity |
| QVQLVESGGGLVQAGGSLRLSCAASGRTFRTNAMGWYRQAPGKERELVAAIRASTGSTYYADSVKGRFTISRDNAKNTVYLQMNSLKPEDTAVYYCAATTQGVRYGYWGQGTQVTVSA | high polyreactivity |
| QVQLVESGGGLVQAGGSLRLSCAASGRTFRTNAMGWYRQEPGKERELVASITWRGDSTYYADSVKGRFTISRDNAKNTVYLQMNRLKPEDTAVYYCAAGGFYWGYLWGRYDYWGQGTQVTVSS | high polyreactivity |
| QVQLVESGGGLVQAGGSLRLSCAASGRTFRTNDMGWYRQAPGKERELVARITRGGSTYADSVKGRFTISRDNAKNTVYLHMNSLKPEDTAVYYCAAVTKLSGIRYNYWGQGTQVTVSS | low polyreactivity |
| QVQLVESGGGLVQAGGSLRLSCAASGRTFRVNAMGWYRQAPGKERELVAAITSSGGNTYADSVKGRFTISRDNAKNTVYLQMNSLKPEDTAVYYCAAVSSTRGDYWGQGTQVTVSS | high polyreactivity |
| QVQLVESGGGLVQAGGSLRLSCAASGRTFRVYAMGWYRQAPGKEREFVAAISYSGGRTNYADSVKGRFTISRDNSKNTVYLQMNSLKPEDTAVYYCAARYSWAEGDYWGQGTQVTVSS | low polyreactivity |
| QVQLVESGGGLVQAGGSLRLSCAASGRTFRVYAMGWYRQAPGKEREFVAAITDSGGRTYYADSVKGRFTISRDNAKNTVYLQMNSLKPEDTAVYYCNAYQYYERYDTYLFRYDYWGQGTQVTVSS | low polyreactivity |
